Legend:
[1] = biological target: T1, CXCL11_HUMAN (human, UniProt O14625 22-94); assay: BLI [Cont.) C]
T1 sequence: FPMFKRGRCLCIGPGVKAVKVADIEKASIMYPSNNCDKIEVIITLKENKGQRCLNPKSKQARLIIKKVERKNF

[2] = biological target: T2, CXCL10_HUMAN (human, UniProt P02778 22-98); assay: BLI [Cont.) C]
T2 sequence: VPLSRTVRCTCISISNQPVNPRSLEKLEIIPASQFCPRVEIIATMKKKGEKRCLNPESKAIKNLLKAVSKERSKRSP

[3] = biological target: T3, CXCL7_HUMAN (human, UniProt P02775 59-128); assay: BLI [Cont.) C]
T3 sequence: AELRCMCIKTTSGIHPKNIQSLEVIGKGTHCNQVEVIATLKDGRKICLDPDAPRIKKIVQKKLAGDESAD

[4] = biological target: T4, CXCL4_HUMAN (human, UniProt P02776 32-101); assay: BLI [Cont.) C]
T4 sequence: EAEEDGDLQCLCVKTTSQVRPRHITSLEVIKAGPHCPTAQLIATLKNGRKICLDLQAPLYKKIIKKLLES

[5] = biological target: T5, CCL1_HUMAN (human, UniProt P22362 24-96); assay: BLI
T5 sequence: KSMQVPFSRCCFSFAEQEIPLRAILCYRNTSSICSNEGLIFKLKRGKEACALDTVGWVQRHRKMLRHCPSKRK

[6] = biological target: T6, CCL24_HUMAN (human, UniProt O00175 27-104); assay: BLI
T6 sequence: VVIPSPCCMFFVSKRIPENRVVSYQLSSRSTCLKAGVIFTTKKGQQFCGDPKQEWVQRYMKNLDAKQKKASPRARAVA

[7] = biological target: CCL13_HUMAN (human, UniProt Q99616 24-98); assay: BLI
[8] = biological target: T7, CCL23_HUMAN (human, UniProt P55773 22-120); assay: BLI
T7 sequence: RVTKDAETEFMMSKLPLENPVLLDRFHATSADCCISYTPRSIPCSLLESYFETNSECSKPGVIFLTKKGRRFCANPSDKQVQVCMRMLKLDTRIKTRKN

[9] = biological target: T8, CCL4L1_HUMAN (human, UniProt Q8NHW4 24-92); assay: BLI
T8 sequence: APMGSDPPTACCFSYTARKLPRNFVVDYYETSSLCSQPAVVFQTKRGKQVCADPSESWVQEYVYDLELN

[10] = biological target: T9, CCL4_HUMAN (human, UniProt P13236 24-92); assay: BLI
T9 sequence: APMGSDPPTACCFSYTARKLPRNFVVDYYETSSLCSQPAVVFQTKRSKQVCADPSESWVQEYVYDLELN

[11] = biological target: T10, CCL19_HUMAN (human, UniProt Q99731 22-98); assay: BLI
T10 sequence: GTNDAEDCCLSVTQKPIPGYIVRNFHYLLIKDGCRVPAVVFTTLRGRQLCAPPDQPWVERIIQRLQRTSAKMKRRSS

[12] = biological target: T11, CCL21_HUMAN (human, UniProt O00585 24-134); assay: BLI
T11 sequence: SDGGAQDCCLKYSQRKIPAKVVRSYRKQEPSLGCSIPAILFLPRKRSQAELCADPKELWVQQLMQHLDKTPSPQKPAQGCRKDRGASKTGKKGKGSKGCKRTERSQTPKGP

[13] = biological target: T12, CCL8_HUMAN (human, UniProt P80075 24-99); assay: BLI
T12 sequence (looked up): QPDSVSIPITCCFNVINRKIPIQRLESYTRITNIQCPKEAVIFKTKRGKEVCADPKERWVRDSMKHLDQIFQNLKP

[14] = biological target: T13, CCL18_HUMAN (human, UniProt P55774 21-89); assay: BLI
T13 sequence: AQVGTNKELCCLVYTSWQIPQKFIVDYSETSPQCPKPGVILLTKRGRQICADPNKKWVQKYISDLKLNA

[15] = biological target: T14, CCL3L1_HUMAN (human, UniProt P16619 24-93); assay: BLI
T14 sequence: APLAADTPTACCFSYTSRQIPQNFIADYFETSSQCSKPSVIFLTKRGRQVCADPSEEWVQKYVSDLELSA

[16] = biological target: T15, CCL27_HUMAN (human, UniProt Q9Y4X3 25-112); assay: BLI
T15 sequence: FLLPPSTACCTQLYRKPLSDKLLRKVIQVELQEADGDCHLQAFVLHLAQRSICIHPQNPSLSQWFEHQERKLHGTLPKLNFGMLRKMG

[17] = biological target: CCL2_HUMAN (human, UniProt P13500 24-99); assay: BLI
[18] = biological target: T16, CCL28_HUMAN (human, UniProt Q9NRJ3 23-127); assay: BLI
T16 sequence: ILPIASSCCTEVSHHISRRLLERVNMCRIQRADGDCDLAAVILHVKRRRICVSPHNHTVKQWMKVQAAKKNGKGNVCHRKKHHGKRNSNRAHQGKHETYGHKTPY

[19] = biological target: T17, CCL17_HUMAN (human, UniProt Q92583 24-94); assay: BLI
T17 sequence: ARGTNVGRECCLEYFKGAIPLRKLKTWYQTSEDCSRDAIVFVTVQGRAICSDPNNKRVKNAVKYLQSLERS

[20] = biological target: T18, CCL15_HUMAN (human, UniProt Q16663 22-113); assay: BLI
T18 sequence: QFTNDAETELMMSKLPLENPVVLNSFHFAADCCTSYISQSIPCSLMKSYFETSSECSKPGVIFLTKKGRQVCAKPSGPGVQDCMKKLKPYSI

[21] = biological target: T19, CCL5_HUMAN (human, UniProt P13501 24-91); assay: BLI
T19 sequence: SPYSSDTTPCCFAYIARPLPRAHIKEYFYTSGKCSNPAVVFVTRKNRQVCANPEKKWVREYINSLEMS
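Wherever Kd is given: biolayer interferometry binding readings, curves fitting with R² below 0.9 dropped, every experiment run at least three times.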

Sequence of CCL13_HUMAN (Q99616 24-98 limits assumed): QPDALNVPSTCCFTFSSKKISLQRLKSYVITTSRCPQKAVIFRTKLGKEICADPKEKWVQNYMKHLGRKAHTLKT
Sequence of CCL2_HUMAN (P13500 24-99 limits assumed): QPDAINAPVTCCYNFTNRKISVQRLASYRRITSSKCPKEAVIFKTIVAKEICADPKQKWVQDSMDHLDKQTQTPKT

B1: P1243:G4S:P1156 (designed binder)
chain: RNHTEDNSTEYYDYEEARCACPARHLNNTNGTVLKLLGCHYFCNGTLCTAPDGYPCYNLTAQQVRTLTTYPNTSCAVGVCMKGTCVKNGTMEQCFKTPGGGGSADDDNELFTVQYCGMNCTKDEGGTWTGCTGKKEGCKCYHESGKNYGLCLSTEYTDFSQYGNPSDSEIEAAKPKRSDTLSH
binding result [1]: no binding (tested: 300 nM)
binding result [2]: no binding (tested: 300 nM)
binding result [3]: no binding (tested: 300 nM)
binding result [4]: no binding (tested: 300 nM)
binding result [5]: no binding (tested: 300 nM)
Kd [6]: 16.4 nM
Kd [7]: 1.33 nM
Kd [8]: 0.632 nM
binding result [9]: no binding (tested: 300 nM)
Kd [10]: 19.4 nM
Kd [11]: 2.92 nM
Kd [12]: 53.8 nM
Kd [13]: 381 nM
Kd [14]: 0.543 nM
Kd [15]: 4.06 nM
Kd [16]: 24.4 nM
binding result [17]: no binding (tested: 300 nM)
binding result [18]: no binding (tested: 300 nM)
Kd [19]: 3.51 nM
Kd [20]: 8.71 nM
Kd [21]: 8.95 nM

Reference: US20240034757A1 (OXFORD UNIVERSITY INNOVATION, published 2024)
